Bridges are numbered along the chain shown (N, C = ends). Primed or numbered codes have the meaning given here. [ ]: non-standard residue; d: D form. Ygp(4) = Tyr with amino-capped PEG8 (O-(8x polyethylene glycol-amino)-tyrosine); Yn3(4) = Tyr with azide-capped PEG9 (O-(9x polyethylene glycol-azido)-tyrosine); Ygp = O-(8x polyethylene glycol-amino)-tyrosine (Tyr, amino-capped PEG8); Yn3 = O-(9x polyethylene glycol-azido)-tyrosine (Tyr, azide-capped PEG9); hSer = N[C@@H](CCO)C(=O)O; Nle = CCCC[C@H](N)C(=O)O

For experiment [1], the target named is T1, Avi-tag Fc with human IL-2R beta and IL-2R gamma attached (Acrobiosystems ACRB-ILG-H82F3-25UG) (human, UniProt P14784 27-239; P31785 23-262).
T1 construct: Bought; attached to the SAX2 biosensor; also called CD122 CD132; IL-2R βγ; not shown: Fc and Avi-tag
T1 sequence (looked up) 1: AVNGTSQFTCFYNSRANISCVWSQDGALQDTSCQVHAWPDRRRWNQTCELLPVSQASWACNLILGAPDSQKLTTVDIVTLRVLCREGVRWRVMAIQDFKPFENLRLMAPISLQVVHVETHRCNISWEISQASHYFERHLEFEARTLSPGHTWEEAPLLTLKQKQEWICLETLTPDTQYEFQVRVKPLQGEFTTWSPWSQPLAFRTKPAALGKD
T1 sequence (looked up) 2: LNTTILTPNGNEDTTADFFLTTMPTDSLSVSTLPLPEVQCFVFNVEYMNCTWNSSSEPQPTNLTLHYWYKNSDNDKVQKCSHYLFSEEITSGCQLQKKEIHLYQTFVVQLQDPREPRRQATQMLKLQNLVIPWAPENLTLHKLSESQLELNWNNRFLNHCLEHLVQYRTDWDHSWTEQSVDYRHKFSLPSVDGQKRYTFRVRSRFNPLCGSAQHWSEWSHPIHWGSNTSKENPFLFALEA
Description: BLI (Octet R8), receptor on SAX2 sensor. The method, boiled down:
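Receptor immobilized on SAX2 biosensors; analytes (intact or MMP2-cleaved activatable IL-2 constructs) started at 300 nM and serially diluted in Kinetic buffer or PBS with 0.02% Tween 20 and 0.1% BSA. Binding constants measured by biolayer interferometry; sensors regenerated with 10 mM glycine pH 2.7 between runs.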
On the technique in general: Biolayer interferometry detects binding as a change in optical thickness at a sensor tip.

In experiment [2] the target is T2, recombinant human IL-2 receptor beta containing a His-tag and Avi-tag (human, UniProt P14784 27-239).
T2 construct: Bought; attached to the SAX2 biosensor; also called CD122; IL-2R β; not shown: His-tag and Avi-tag
T2 sequence (looked up): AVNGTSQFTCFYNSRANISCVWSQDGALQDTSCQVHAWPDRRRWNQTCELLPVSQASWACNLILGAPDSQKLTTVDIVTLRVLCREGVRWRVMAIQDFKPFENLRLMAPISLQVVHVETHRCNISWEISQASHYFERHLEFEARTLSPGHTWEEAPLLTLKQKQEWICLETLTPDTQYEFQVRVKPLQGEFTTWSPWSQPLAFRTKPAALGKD
Description: BLI (Octet R8), receptor on SAX2 sensor; construct CMP-313, not MMP2-treated. As to the method: (§1) Bilayer interferometry (BLI) assays were used to measure the binding constants between activatable IL-2 polypeptides (and activated versions thereof) to IL-2 receptor subunits or receptor complexes. BLI assays were conducted on an Octet® R8 instrument. Assay plates were 96 well, polypropylene, F-bottom (chimney well), black microplates (Greiner Bio-one, Cat. No: 655209). The biosensors were Octet® SAX2 (Sartorius, Cat. No: 18-5136). The assay buffer was 1X Kinetic Buffer (Sartorius, Cat. no: 18-5136) or Phosphate Buffered Saline (PBS) that contained 0.02% (v: v) Tween 20 (Polysorbate 20) and 0.1% (w/v) bovine serum albumin (BSA). The sensor was regenerated between measurements in 10 mM glycine pH 2.7 buffer.
(§2) Sensor attached receptors were either recombinant human IL-2 receptor beta containing a His-tag and Avi-tag™ (R&D Systems™) or an Avi-tag™ Fc with human IL-2R beta and IL-2R gamma attached (Acrobiosystems Cat. no: ACRB-ILG-H₈₂F3-25UG). Receptors were reconstituted from lyophilized powder to 500 μg/ml in PBS. Analytes were diluted in Kinetic buffer to 300 nM, then serially diluted to lower concentrations.

In experiment [3] the target is T1, Avi-tag Fc with human IL-2R beta and …. The experiment is described as above. As to the method:
as §1, §2

Experiment [4] deals with T2, recombinant human IL-2 receptor beta …. Description: BLI (Octet R8), receptor on SAX2 sensor; construct CMP-328, not MMP2-treated. As to the method:
as §1, §2

B1: CMP-313 (ligand)
chain: APTSSSTKKTQLQLEHLLLDLQKILNGINNYKNPKLTR[Nle]L[hSer][Yn3(4)]KF[Ygp(4)][Nle]PKKATELKHLQCLEEELKPLEEVL[hSer]LAQSKNFHLRPRDLISNINVIVLELKGSETTF[hSer]CEYADETATIVEFLNRWITFSQSIISTLT
modifications: not fully specified; ends and bridges not checked; also: Lys23 side chain carries an attached cleavable peptide moiety (structure only in drawing)
notes: Synthetic IL-2 polypeptide, tested intact
A word on the koff: it is the first-order rate constant of dissociation. In general, Kd refers to the concentration at which binding is half-saturated. Take B1: the koff in experiment [1] was determined as 0.00148 s⁻¹. The Kd is 163 nM in experiment [2] and 3.4 nM in experiment [3].

B2: CMP-328 (ligand)
chain: APTSSSTKKTQLQLEHLLLDLQEILNGINNYKNPKLTR[Nle]L[hSer][Yn3]KF[Ygp][Nle]PKKATELKHLQCLEEELKPLEEVL[hSer]LAQSKNFHLRPRDLISNINVIVLELKGSETTF[hSer]CEYADETATIVEFLNRWITFSQSIISTLT
modifications: bridge 9-23; not fully specified (bridges)
notes: as for B1
On to B2, for which the koff in experiment [1] amounted to 0.00194 s⁻¹. Moreover, the dissociation constant Kd in experiment [4] was 0.034 nM.

The values are drawn from patent publication US20240376170A1 (BRIGHT PEAK THERAPEUTICS, published 2024).
